From paper PMC6907089

What was measured:
Assay in all cases: BioID proximity labeling, quantitative mass spectrometry
Settings in all cases: inducible HEK293 cells; read off a plot
DBLOH = target: DBLOH
GRWD1 = target: GRWD1
COPB2 = target: COPB2
TXND9 = target: TXND9
SNP29 = target: SNP29
SYAP1 = target: SYAP1
AL1A2 = target: AL1A2
EFHD2 = target: EFHD2
DBNL = target: DBNL
CPIN1 = target: CPIN1
XIAP = target: XIAP
TBD2B = target: TBD2B
CCD43 = target: CCD43
COPE = target: COPE
CHM4B = target: CHM4B
NHLC2 = target: NHLC2
S23IP = target: S23IP
RFA3 = target: RFA3
AP2B1 = target: AP2B1
ELP4 = target: ELP4
NSF = target: NSF
DHYS = target: DHYS
syntaxin 5 (STX5) = syntaxin 5 (STX5) (UniProt Q13190)
Sequence of UniProt Q13190 (Q13190 whole entry): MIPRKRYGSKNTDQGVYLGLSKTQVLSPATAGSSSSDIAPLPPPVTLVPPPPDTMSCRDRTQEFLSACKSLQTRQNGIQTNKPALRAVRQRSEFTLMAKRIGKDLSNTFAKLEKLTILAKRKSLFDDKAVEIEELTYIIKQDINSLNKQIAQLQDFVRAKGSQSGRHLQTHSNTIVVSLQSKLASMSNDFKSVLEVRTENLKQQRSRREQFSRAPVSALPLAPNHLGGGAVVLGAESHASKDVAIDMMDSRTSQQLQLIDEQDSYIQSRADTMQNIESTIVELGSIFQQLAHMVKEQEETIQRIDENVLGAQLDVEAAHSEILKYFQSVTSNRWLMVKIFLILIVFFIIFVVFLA

COPD = target: COPD
COPB = target: COPB
CDKAL = target: CDKAL
WDR44 = target: WDR44
ZYX = target: ZYX
RFA2 = target: RFA2
SAHH2 = target: SAHH2
TES = target: TES
PAPOA = target: PAPOA
COPA = target: COPA
VRK2 = target: VRK2
EMC2 = target: EMC2
CKSP2 = target: CKSP2
N4BP1 = target: N4BP1
ICAL = target: ICAL
EIF3D = target: EIF3D
NSMA3 = target: NSMA3
SEPT9 = target: SEPT9
SH3G1 = target: SH3G1
TBPL1 = target: TBPL1

## STING H232 (wild-type; wt) (from UniProt Q86WV6) G207E
DBLOH
  ratio to parent: 0.48
GRWD1
  ratio to parent: 0.46
COPB2
  ratio to parent: 0.36
TXND9
  ratio to parent: 0.36
SNP29
  ratio to parent: 0.26
SYAP1
  ratio to parent: 0.41
AL1A2
  ratio to parent: 0.39
EFHD2
  ratio to parent: 0.38
DBNL
  ratio to parent: 0.47
CPIN1
  ratio to parent: 0.46
XIAP
  ratio to parent: 0.21
TBD2B
  ratio to parent: 0.39
CCD43
  ratio to parent: 0.46
COPE
  ratio to parent: 0.22
CHM4B
  ratio to parent: 0.41
NHLC2
  ratio to parent: 0
S23IP
  ratio to parent: 0.39
RFA3
  ratio to parent: 0.34
AP2B1
  ratio to parent: 0.35
ELP4
  ratio to parent: 0.38
NSF
  ratio to parent: 0.37
DHYS
  ratio to parent: 0
Syntaxin 5 (STX5)
  ratio to parent: 0.47
COPD
  ratio to parent: 0.28
COPB
  ratio to parent: 0.35
CDKAL
  ratio to parent: 0.4
WDR44
  ratio to parent: 0.32
ZYX
  ratio to parent: 0.29
RFA2
  ratio to parent: 0.32
SAHH2
  ratio to parent: 0.36
TES
  ratio to parent: 0.47
PAPOA
  ratio to parent: 0.4
COPA
  ratio to parent: 0.31
VRK2
  ratio to parent: 0.46
EMC2
  ratio to parent: 0.48
CKSP2
  ratio to parent: 0
N4BP1
  ratio to parent: 0.27
ICAL
  ratio to parent: 0
EIF3D
  ratio to parent: 0.23
NSMA3
  ratio to parent: 0.21
SEPT9
  ratio to parent: 0.3

## STING R232 (from UniProt Q86WV6) G207E
DBLOH
  ratio to parent: 0.26
GRWD1
  ratio to parent: 0.26
COPB2
  ratio to parent: 0.06
TXND9
  ratio to parent: 0.53
SNP29
  ratio to parent: 0.09
SYAP1
  ratio to parent: 0.5
AL1A2
  ratio to parent: 0.05
EFHD2
  ratio to parent: 0.44
DBNL
  ratio to parent: 0.24
CPIN1
  ratio to parent: 0.17
XIAP
  ratio to parent: 0.57
TBD2B
  ratio to parent: 0.5
CCD43
  ratio to parent: 0.38
COPE
  ratio to parent: 0.28
CHM4B
  ratio to parent: 0.14
NHLC2
  ratio to parent: 0.24
S23IP
  ratio to parent: 0.19
SH3G1
  ratio to parent: 0.2
RFA3
  ratio to parent: 0.47
AP2B1
  ratio to parent: 0.72
ELP4
  ratio to parent: 0.75
NSF
  ratio to parent: 0.57
DHYS
  ratio to parent: 0
Syntaxin 5 (STX5)
  ratio to parent: 0.27
COPD
  ratio to parent: 0.1
COPB
  ratio to parent: 0.1
CDKAL
  ratio to parent: 0.2
WDR44
  ratio to parent: 0.75
ZYX
  ratio to parent: 0.8
RFA2
  ratio to parent: 0.43
SAHH2
  ratio to parent: 0.2
TES
  ratio to parent: 0.72
PAPOA
  ratio to parent: 0.96
COPA
  ratio to parent: 0.04
VRK2
  ratio to parent: 0
EMC2
  ratio to parent: 0
CKSP2
  ratio to parent: 0.41
N4BP1
  ratio to parent: 0.41
ICAL
  ratio to parent: 0.57
EIF3D
  ratio to parent: 0.31
NSMA3
  ratio to parent: 0.28
TBPL1
  ratio to parent: 0.49
SEPT9
  ratio to parent: 0.12
